Data: patent US20260022160A1 (AFFYXELL THERAPEUTICS, published 2026)
Where “and” joins values, the source holds several entries; their conditions need not be identical. Identical values can stand only once. Blank lines part the entries; values can stand above or below the binder they belong to.

Experiments:
[1] = target: T1, human CD40L expressed on HEK293 cells (human, UniProt P29965 1-261); experiment: flow cytometry, clone at 1 uM on hCD40L-HEK293 cells (hatched), HEK-293 negative cells as control (open), detection anti-Cystatin A + A488 anti-goat
T1 construct: whole, on cells; also called hCD40L-HEK293 cells; hCD40L-HEK-293 cells (Crown Biosciences, C2041)
T1 sequence (looked up): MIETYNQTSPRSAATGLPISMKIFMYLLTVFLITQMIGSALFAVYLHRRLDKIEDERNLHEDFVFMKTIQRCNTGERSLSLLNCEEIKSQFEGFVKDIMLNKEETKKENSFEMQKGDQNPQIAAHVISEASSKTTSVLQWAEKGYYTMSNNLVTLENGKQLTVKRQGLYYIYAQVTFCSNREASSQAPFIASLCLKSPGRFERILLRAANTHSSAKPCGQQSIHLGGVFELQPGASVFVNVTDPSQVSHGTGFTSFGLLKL
Description: The cells were resuspended in PBS and 200,000 cells per well were dispatched in a round bottom 96 well plate. Cells were washed with PBS. The stefin A protein variant and controls were diluted in staining buffer containing 1% BSA, 0.01% Sodium Azide (NaN3), 2 mM EDTA in DPBS in duplicate and added on cells for staining for approximately 60 min at 4±1° c. Cells were washed and the secondary anti-Cystatin A (R&D, AF1407) was diluted 0.2 mg/ml in staining buffer and added on cells for staining for approximately 45 min at 4±1° c. Cells were washed again and the detection antibody A488 anti-goat (ThermoFisher, A21467) was diluted 1:500 in staining buffer and added to the cells for staining (approximately 30 min at 4±1° C.). Finally, the cells were washed and live and dead cells were stained using L/D stain Zombie Yellow (Biolegend, 423103) diluted in staining buffer for 10 min at 4±1° C. Cells were washed again and fixation buffer (R&D) was added to each well for 10 min at 4±1° C. then PBS with EDTA (Lonza) was added prior reading the plate on the flow cytometer (Guava 12 HT, Millipore). Dead cells were excluded, and the fluorescent green channel (488 nm/525/30) was acquired. Results were analyzed using Incyte and data were plotted using GraphPad.

human CD40L [2] = target: T2, human CD40L (human, UniProt P29965 113-261, limits assumed); experiment: direct binding ELISA on plate-coated hCD40L (5 ug/ml), detection biotinylated anti-cystatin A antibody + polyHRP-streptavidin, OD 450-630 nm; the table prints 268, the curve legend prints Clone -288 in its place
T2 construct: also called hCD40L; huCD40L
T2 sequence (looked up): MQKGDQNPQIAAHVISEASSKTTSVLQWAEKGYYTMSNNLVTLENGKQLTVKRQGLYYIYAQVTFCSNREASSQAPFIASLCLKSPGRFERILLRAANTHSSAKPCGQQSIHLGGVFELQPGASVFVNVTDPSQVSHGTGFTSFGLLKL
Description: Plates were washed 2 times with 150 μl of washing buffer (PBS, Tween 20 0.1%) with a plate washer and saturated with Casein 5% (Sigma) in PBS for 90 minutes at room temperature (25±1° C.). For binding, each DAW01 clone and rhCD40 Fc were added to the plate, starting from 1 μM, 1 in 3 and 300 nM, 1 in 3 respectively. Plates were washed 3 times as described previously. […] Then, cystatin A biotinylated polyclonal antibody (BAF1407) was diluted to a concentration of 0.05 μg/ml in dilution buffer (PBS, 1% casein, 0.01% Tween 20) and the plate was incubated for 90 minutes at room temperature (25±1° C.). PolyHRP-streptavidin was then diluted in dilution buffer and the plates were incubated for 90 minutes at room temperature (25±1° C.). The plates were then washed 3 times as described previously, and the substrate (TMB, Pierce Thermo-Scientific) was added to the plates for 10 minutes. The reaction was stopped using an acidic solution, and plates were read at 450-630 nm.

human CD40L [3] = target: T2, human CD40L; experiment: cell-based or functional assay
human CD40L [4] = target: T2, human CD40L; experiment: competitive ELISA: hCD40L (1 nM) premixed with the binder and added to plate-coated rhCD40 Fc; bound hCD40L detected with biotinylated anti-hCD40L polyclonal antibody
Description: To evaluate the avidity of the different formats, a CD40L competitive ELISA was performed. Briefly, the plates were coated with rhCD40 Fc at 1 μg/ml and incubated overnight at 4° C. The plates were washed twice with 150 μl of washing buffer (PBS, Tween 20 0.1%) with a plate washer and saturated with Casein 5% (Sigma) in PBS for 90 minutes at room temperature (25±1° C.). […] The resulting solution was then mixed and added to the plates. The plates were washed 3 times as described previously. […] The plates were incubated for 90 minutes at room temperature (25±1° C.). The plates were then washed. PolyHRP-Streptavidin was then diluted in dilution buffer and added to the plates. The plates were incubated an additional 90 minutes at room temperature (25±1° C.). Plates were washed 3 times as described previously and the substrate (TMB, Pierce Thermo-Scientific) was added in the plate for 10 minutes. The reaction was stopped using an acidic solution and the plates were read at 450-630 nm and the resulting percent inhibition was calculated.

human CD40L [5] = target: T2, human CD40L; experiment: ELISA on plate-coated hCD40L, no HSA, detection with anti-cystatin antibody, OD 450-630 nm
Description: After a last washing step, TMB was added for the development of the experiment and the plates were read at 450 nm. The EC50 was then calculated using the interpolated non-linear four-parameters standard curve (FIG. 12C).

human CD40L [6] = target: T2, human CD40L; experiment: ELISA on plate-coated hCD40L in the presence of HSA (10 uM), detection with anti-cystatin antibody, OD 450-630 nm
human CD40L [7] = target: T2, human CD40L; experiment: bridging ELISA: capture on plate-coated hCD40L, HSA 10 uM, detection with anti-HSA antibody, OD 450-630 nm
Description: (§1) After saturation with 5% casein/PBS buffer, the plates were washed and a dilution of Stefin A protein variant or controls was incubated with HSA at a final concentration of 10 μM for 90 minutes. Plates were then washed, and a […], anti-HSA (HRP-conjugated) (Abcam), was added for 90 minutes. After a last washing step, TMB was added for the development of the experiment and the plates were read at 450 nm. The EC50 was then calculated using the interpolated non-linear four-parameters standard curve (FIG. 12C).

[8] = target: T3, human Mega CD40L recombinant protein (Enzo Lifesciences) (human, UniProt P29965 116-261); experiment: cell-based or functional assay
T3 sequence (looked up): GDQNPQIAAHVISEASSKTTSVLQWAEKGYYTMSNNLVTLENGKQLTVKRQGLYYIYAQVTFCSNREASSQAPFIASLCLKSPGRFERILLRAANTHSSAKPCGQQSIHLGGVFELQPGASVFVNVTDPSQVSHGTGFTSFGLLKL

[9] = target: T4, recombinant human CD40L (R&D Systems, 6420-CL-025/CF) (human, UniProt P29965 108-261, limits assumed); experiment: binding ELISA, plate-coated recombinant human CD40L, concentrated culture fluid; first-named of the two gene-introduced cell lines (two promoters); promoter not told
T4 sequence (looked up): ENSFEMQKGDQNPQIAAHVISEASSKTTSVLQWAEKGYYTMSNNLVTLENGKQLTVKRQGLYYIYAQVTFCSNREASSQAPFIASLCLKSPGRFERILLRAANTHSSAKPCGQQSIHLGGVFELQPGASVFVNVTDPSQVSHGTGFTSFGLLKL
Description: (§2) Each cell line was inoculated into a T175 flask at a cell density of 4.0×10³ cells/cm² using a culture medium. After culture at 37° C. and 5% CO₂ for 18 to 24 hours, the culture medium was thoroughly replaced with a fresh culture medium every 2 days, followed by culture. After culture for 3 days, the cells were harvested, and 7.0×10⁶ cells were inoculated into a T175 flask, followed by culture at 37° C. and 5% CO₂ for 18 to 24 hours. The culture medium was thoroughly removed, and the remaining medium was completely removed through washing with 10 mL of MEM alpha. 30 mL of an MEM alpha medium was added to a T175 flask, followed by culture for 48 hours. After 48 hours, all of the cell culture fluid was harvested and then centrifuged to remove residual cells and impurities. The cell culture fluid was transferred to a Vivaspin 20 and centrifuged, the culture fluid was concentrated, and the stefin A protein variant was quantified through sandwich ELISA (LSBio, LS-F4620). […] The unbound stefin A protein variant was removed through washing, after which the extent of binding between the stefin A protein variant and CD40L was detected based on a difference in absorbance resulting from reaction with a TMB substrate.

[10] = target: T3, human Mega CD40L recombinant protein …; experiment: cell-based or functional assay; remark: listed apart in the source
[11] = target: T4, recombinant human CD40L (R&D Systems, …); experiment: binding ELISA, plate-coated recombinant human CD40L, concentrated culture fluid; second-named of the two gene-introduced cell lines (two promoters); promoter not told
Description: as §2

human serum albumin = target: T5, human serum albumin (human, UniProt P02768 25-609); experiment: bridging ELISA: binder captured on plate-coated hCD40L, HSA 10 uM, bound HSA detected with anti-HSA antibody
T5 construct: also called HSA
T5 sequence (P02768 25-609): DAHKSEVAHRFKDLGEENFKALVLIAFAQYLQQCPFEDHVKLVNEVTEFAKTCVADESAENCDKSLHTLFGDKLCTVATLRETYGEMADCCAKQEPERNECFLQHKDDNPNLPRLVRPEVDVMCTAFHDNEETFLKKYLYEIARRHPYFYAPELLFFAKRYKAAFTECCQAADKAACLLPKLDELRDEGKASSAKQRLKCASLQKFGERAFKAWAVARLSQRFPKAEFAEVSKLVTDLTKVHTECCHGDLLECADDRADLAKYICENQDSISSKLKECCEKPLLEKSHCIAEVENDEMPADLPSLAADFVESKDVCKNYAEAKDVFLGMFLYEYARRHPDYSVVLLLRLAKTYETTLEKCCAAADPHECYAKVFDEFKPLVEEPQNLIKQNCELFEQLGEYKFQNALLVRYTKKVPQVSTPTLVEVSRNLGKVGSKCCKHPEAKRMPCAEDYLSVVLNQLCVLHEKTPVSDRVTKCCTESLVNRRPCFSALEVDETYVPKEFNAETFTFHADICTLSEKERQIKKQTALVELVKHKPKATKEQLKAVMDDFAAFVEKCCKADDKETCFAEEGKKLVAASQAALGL
Description: as §1

% Positive [1]: 95.7%
MFI [1]: 7780 MFI
EC50 (human CD40L [2]): 31.2 nM
B1: stefin A protein variant clone 268 (designed binder)
chain: MIPGGLSEAKPATPEIQEIVDKVKPQLEEKTGETYGKLEAVQYKTQVVGDSYWEYVSGTNYYIKVRAGDNKYMHLKVFKSLPYRWRPDHAEDLVLTGYQVDKNKDDELTGF

IC50 (read off the curve) (human CD40L [3]): ~2 nM
IC50 (read off the curve) (human CD40L [4]): ~3 nM
EC50 (human CD40L [5]): 0.07 nM
EC50 (human CD40L [6]): 0.1 nM
EC50 (human CD40L [7]): 0.8 nM
B2: clone-230 XT76 (tetramer with a rigid linker and an HSA binding stefin A protein variant) (designed binder)
chain: IPGGLSEAKPATPEIQEIVDKVKPQLEEKTGETYGKLEAVQYKTQVVHYYVHYNDQGTNYYIKVRAGDNKYMHLKVFKSLWGENLFAKWEDLVLTGYQVDKNKDDELTGFAEAAAKEAAAKEAAAKEAAAKEAAAKEAAAKMIPGGLSEAKPATPEIQEIVDKVKPQLEEKTGETYGKLEAVQYKTQVVHYYVHYNDQGTNYYIKVRAGDNKYMHLKVFKSLWGENLFAKWEDLVLTGYQVDKNKDDELTGFAEAAAKEAAAKEAAAKEAAAKEAAAKEAAAKMIPGGLSEAKPATPEIQEIVDKVKPQLEEKTGETYGKLEAVQYKTQVVHYYVHYNDQGTNYYIKVRAGDNKYMHLKVFKSLWGENLFAKWEDLVLTGYQVDKNKDDELTGFAEAAAKEAAAKEAAAKEAAAKEAAAKEAAAKMIPGGLSEAKPATPEIQEIVDKVKPQLEEKTGETYGKLEAVQYKTQVVHYYVHYNDQGTNYYIKVRAGDNKYMHLKVFKSLWGENLFAKWEDLVLTGYQVDKNKDDELTGFAEAAAKEAAAKEAAAKEAAAKEAAAKEAAAKMIPRGLSEAKPATPEIQEIVDKVKPQLEEKTGETYGKLEAVQYKTQVLANFFQRRWPGSTNYYIKVRAGDNKYMHLKVFNGPWKFRNTDRGADRVLTGYQVDKNKDDELTGF

IC50, HEK-Blue CD40L cell assay [8]: 0.303 nM and 0.4 nM
EC50 [9]: 0.0039 nM
IC50 (read off the curve) [10]: ~0.3 nM and ~0.4 nM
EC50 [11]: 0.0053 nM
B3: XT75 anti-CD40L stefin A protein variant secreted by gene-introduced MSC (eMSC) (designed binder)
chain: IPGGLSEAKPATPEIQEIVDKVKPQLEEKTGETYGKLEAVQYKTQVVHYYVHYNDQGTNYYIKVRAGDNKYMHLKVFKSLWGENLFAKWEDLVLTGYQVDKNKDDELTGFAEAAAKEAAAKEAAAKEAAAKEAAAKEAAAKMIPGGLSEAKPATPEIQEIVDKVKPQLEEKTGETYGKLEAVQYKTQVVHYYVHYNDQGTNYYIKVRAGDNKYMHLKVFKSLWGENLFAKWEDLVLTGYQVDKNKDDELTGFAEAAAKEAAAKEAAAKEAAAKEAAAKEAAAKMIPGGLSEAKPATPEIQEIVDKVKPQLEEKTGETYGKLEAVQYKTQVVHYYVHYNDQGTNYYIKVRAGDNKYMHLKVFKSLWGENLFAKWEDLVLTGYQVDKNKDDELTGFAEAAAKEAAAKEAAAKEAAAKEAAAKEAAAKMIPRGLSEAKPATPEIQEIVDKVKPQLEEKTGETYGKLEAVQYKTQVLANFFQRRWPGSTNYYIKVRAGDNKYMHLKVFNGPWKFRNTDRGADRVLTGYQVDKNKDDELTGF
notes: also called eMSC (XT75, w/EF1A); eMSC (XT75, w/CBh)

IC50 (read off the curve) (human CD40L [3]): ~8 nM
IC50 (read off the curve) (human CD40L [4]): ~4 nM
binding result (human serum albumin): binds
EC50 (human CD40L [5]): 0.02 nM
EC50 (human CD40L [6]): 0.04 nM
EC50 (human CD40L [7]): 0.41 nM
B4: clone-230 XT75 (trimer with a rigid linker and an HSA binding stefin A protein variant) (designed binder)
chain: B3 chain
notes: also called AFX01-230 XT75
